Laboratory results reported in patent US9752163B2, “Process for the production of isoprenol from mevalonate employing a diphosphomevalonate decarboxylase” (Global Bioenergies, priority 2009, dated 2017).

Columns and labels:
[1] = Mevalonate decarboxylation activity followed by inorganic phosphate production (ammonium molybdate method); type: biochemical
Protocol: The reaction medium contained 100 mM mevalonate, 40 mM ATP, 10 mM MgCl2, 20 mM KCl, 0.5 mM DTT and enzyme preparation varying from 0.01 to 0.05 mg/ml of protein. 50 mM sodium citrate was used in the range of pH from 4 to 6, and 50 mM Tris-HCl for pH 7 and 7.5. Enzyme-free control assays were carried out in parallel. After 72 h incubation, inorganic phosphate was quantified colorimetrically according to the ammonium molybdate method (Gawronski J D, Benson D R, Anal. Biochem. 327 (2004) 114-118). A 50 μl sample (containing not more than 0.5 μmole of phosphate) was mixed with 150 μl of ammonium molybdate reagent containing 50% v/v acetone, 1.25 N H2SO4, 2.5 mM (NH4)6Mo7O24 and then with 10 μl 1 M citric acid. The mixture was incubated for 2 minutes at room temperature. The absorbance of ammonium phosphomolybdate formed was measured at 355 nm and the quantity of inorganic phosphate estimated using a calibration curve obtained with potassium phosphate.
(§1) The complete assay for mevalonate decarboxylation contains reaction buffer, 100 mM mevalonate, 40 mM ATP, 10 mM MgCl2, 20 mM KCl, 0.5 mM DTT and enzyme preparation at a concentration ranging from 0.01 to 0.05 mg/ml of protein. 50 mM sodium citrate is used in the range of pH from 4 to 6, and 50 mM Tris-HCl for pH 7 and 7.5. Control reactions are carried out in the absence of enzyme, substrate or co-factor.
Inorganic phosphate concentration is measured by spectroscopic colorimetry according to the ammonium molybdate method (Gawronski J D, Benson D R, Anal. Biochem. 327 (2004) 114-118). A 50 μl aliquot from the reaction assay (containing not more than 0.5 μmole of phosphate) is mixed with 150 μl ammonium molybdate reagent, containing 50% volume acetone, 1.25 N H2SO4, 2.5 mM (NH4)6Mo7O24 and then with 10 μl 1 M citric acid. The mixture is then incubated for 2 minutes at room temperature. The absorbance of ammonium phosphomolybdate formed was measured at 355 nm and the quantity of inorganic phosphate estimated using a calibration curve obtained with potassium phosphate.

[2] = Product formation as function of mevalonate concentration (permanganate assay); type: biochemical; details: purified enzyme, range of mevalonate concentrations (FIG. 6)
Protocol: as §1
The formation of products containing double-bonds is followed by oxidization with alkaline potassium permanganate solution, resulting in increase of absorbance at 420 nm.
To an aliquot of reaction mixture diluted with H2O to 120 μl, 80 μl of permanganate reagent, containing 5 mM KMnO4 and 50 mM NaOH, is added. The mixture is kept at room temperature for 20 min and the absorbance at 420 nm is measured. The calibration curve is prepared using commercial isoprenol.

B1: Thermoplasma acidophilum (accession number Q9H1N1): MDP decarboxylase enzyme inferred from the genome of Thermoplasma acidophilum (protein, listed as Thermoplasma acidophilum)
chain: MLHHHHHHTYRSIGSTAYPTIGVVLLGGIANPVTRTPLHTSAGIAYSDSCGSIRSETRIYADEATHIYFNGTESTDDNRSVRRVLDRYSSVFEEAFGTKTVSYSSQNFGILSGSSDAGAASIGAAILGLKPDLDPHDVENDLRAVSESAGRSLFGGLTITWSDGFHAYTEKILDPEAFSGYSIVAFAFDYQRNPSDVIHQNIVRSDLYPARKKHADEHAHMIKEYAKTNDIKGIFDLAQEDTEEYHSILRGVGVNVIRENMQKLISYLKLIRKDYWNAYIVTGGSNVYVAVESENADRLFSIENTFGSKKKMLRIVGGAWHRRPE
Q: For B1, which “phosphate production with mevalonate as substrate” value (shortened to “phosphate production”) ([1]; purified proteins (FIG. 5)) is on record?
A: The value was “significant increase in phosphate production”.

B2: Thermoplasma volcanium (accession number Q97BY2): MDP decarboxylase enzyme inferred from the genome of Thermoplasma volcanium (protein, listed as Thermoplasma volcanium)
chain: MLHHHHHHSNSSITSVAYPTIGVVLLGGIANEKTRTPLHTSAGIAYTDSCGSIRTESTIYGDSEMHIYFNGTESKDENRSVKSVLERYRNELQSFFGKKDVSYSSLNYGILSGSSDAGAASIGAILSFIDKKNDIHDIENDIRMISESAGRSLHGGLTITWSDGYSAYTERVLGPEHFNNYAIVGFSFDYPRNPSDTIHQNIIKSKRYKQRTIDADEHAHEIKEMARTDDIEGIFEKAEEDTEEYHSILREVGVLVIRENMQKLIEFIKILRKEFWNSYIVTGGSNVYVIVRRDDLERLIHIKNTFGSKPKILNVAGPAWIKKVESD
Q: Which “phosphate production” value ([1]; purified proteins (FIG. 5)) does the source give for B2 here?
A: The value was “significant increase in phosphate production”.

B3: Picrophilus torridus MDP decarboxylase: diphosphomevalonate (MDP) decarboxylase EC 4.1.1.33 from Picrophilus torridus, expressed in E. coli from the native or codon-optimized gene (protein, listed as Picrophilus torridus)
chain: MENYNVKTRAFPTIGIILLGGISDKKNRIPLHTTAGIAYTGINNDVYTETKLYVSKDEKCYIDGKEIDLNSDRSPSKVIDKFKHEILMRVNLDDENNLSIDSRNFNILSGSSDSGAAALGECIESIFEYNINIFTFENDLQRISESVGRSLYGGLTVNYANGRESLTEPLLEPEAFNNFTIIGAHFNIDRKPSNEIHENIIKHENYRERIKSAERKAKKLEELSRNANIKGIFELAESDTVEYHKMLHDVGVDIINDRMENLIERVKEMKNNFWNSYIVTGGPNVFVITEKKDVDKAMEGLNDLCDDIRLLKVAGKPQVISKNF
modifications: DSM 9790
notes: diphosphomevalonate (MDP) decarboxylase EC 4.1.1.33 from Picrophilus torridus, expressed in E. coli from the native or codon-optimized gene
Q: For B3, which conversion rate [2] is on record?
A: Its conversion rate is “increase with the concentration of mevalonate”.

Q: And the “enzyme activity with mevalonate as substrate” value ([1]; crude lysate of E. coli, optimized gene versus native sequence (FIG. 4b))?
A: The value was “higher enzyme activity”.

Q: And the “phosphate production” value ([1]; library screening, E. coli extracts, 100 mM mevalonate, 40 mM ATP, 72 h incubation)?
A: Its value is “reproducible increase in phosphate production over the background level”.
